Data taken from patent US20210269531A1 (TSINGHUA UNIVERSITY, published 2021).
Blank lines part the entries; values can stand above or below the molecule they belong to.

Key:
[1] = target: human TrkB on CHO cells (hTrkB-CHO cells) (human) (UniProt Q16620); assay: cell-based or functional assay
[2] = target: T1, TrkB full length (FL, WT) conjugated with GFP, expressed in 293T cells (UniProt Q16620 32-822); assay: immunoprecipitation of GFP-tagged full-length and truncated TrkB from 293T lysates; binding domain
T1 construct: whole, on cells; The protein stood in cell lysate, not on whole cells; the numbering of the truncation (366-822) fits human TrkB; not shown: GFP
T1 sequence (Q16620 32-822): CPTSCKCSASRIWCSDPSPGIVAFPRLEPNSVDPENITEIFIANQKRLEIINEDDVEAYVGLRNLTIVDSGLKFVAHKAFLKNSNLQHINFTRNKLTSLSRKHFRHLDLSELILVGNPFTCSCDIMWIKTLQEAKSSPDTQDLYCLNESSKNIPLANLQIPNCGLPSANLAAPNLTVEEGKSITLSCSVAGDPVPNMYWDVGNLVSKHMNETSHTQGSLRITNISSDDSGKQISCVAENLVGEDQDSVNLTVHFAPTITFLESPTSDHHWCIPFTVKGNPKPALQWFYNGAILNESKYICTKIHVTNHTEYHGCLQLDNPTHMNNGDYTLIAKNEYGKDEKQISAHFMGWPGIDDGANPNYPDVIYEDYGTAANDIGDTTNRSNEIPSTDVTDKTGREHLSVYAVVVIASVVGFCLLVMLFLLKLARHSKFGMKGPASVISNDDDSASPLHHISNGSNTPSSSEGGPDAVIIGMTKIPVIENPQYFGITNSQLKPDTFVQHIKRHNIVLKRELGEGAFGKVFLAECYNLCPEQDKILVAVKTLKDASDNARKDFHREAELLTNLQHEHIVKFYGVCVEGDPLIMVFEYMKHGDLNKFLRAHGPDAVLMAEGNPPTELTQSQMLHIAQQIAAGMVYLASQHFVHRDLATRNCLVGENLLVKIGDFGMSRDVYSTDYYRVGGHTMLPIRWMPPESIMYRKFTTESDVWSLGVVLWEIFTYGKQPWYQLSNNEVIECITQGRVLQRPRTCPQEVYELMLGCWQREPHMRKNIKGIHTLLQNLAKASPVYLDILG
Procedure: Cell were washed by cold PBS for 3 times and were lysed in buffer containing 50 mM Tris-HCl (pH 8.0), 250 mM NaCl, 1% NP-40, 0.5% deoxycholate, 0.1% SDS, and protease inhibitors (4693132001, Roche) (Roche Diagnostics) for 20 min on ice. After centrifugation to remove insoluble material, the proteins in lysate incubated with target protein over night at 4° C. 20 μl Protein A beads (sc-2003, Santacruz) were added to the protein mixture. After these mixture incubated for 4-5 h at 4° C., we washed beads for 3 times with lysis buffer. Then the supernatant was removed and 20 μl loading buffer was added to the deposit beads. The beads coupled proteins were denatured and uncoupled by 95° C. heat for 10 min.
Five extracellular domain truncated TrkB constructs were designed as shown in FIG. 2A and transfected to 293T cell for expression respectively. The lysate were collected. Immunoprecipitation was used to test the antibodies that cannot bind to truncated TrkB conjugated with GFP (see FIG. 2B). […] The others such as TrkB-agoAb418 antibody may bind to D5 domain. Δ1 lacks D1 domain (represented by Cys 1), Δ2 lacks D1 and D2 (represented by LAM) domains, Δ3 lacks D1-D3 (represented by Cys 2) domains, Δ4 lacks D1-D4 (represented by Ig1) domains, and Δ5 lacks D1-D5 (represented by Ig2) domains. “TM” represents transmembrane domain, “C” represents control (blank, empty vector). FL represents full length gene (WT).

[3] = target: T2, human TrkB on CHO cells (hTrkB-CHO cells) (human, UniProt Q16620 32-822); assay: cell-based or functional assay
T2 sequence (Q16620 32-822): as above

[4] = target: T2, human TrkB on CHO cells (hTrkB-CHO …); assay: cell-based or functional assay; remark: listed apart in the source
[5] = target: T3, human TrkB (recombinant protein coated in ELISA / immobilised in Biacore) (human, UniProt Q16620 30-430, limits assumed); assay: Biacore T200 SPR, target protein on CM5 chip, antibody in 7 dilutions as fluid phase
T3 construct: also called target protein; antigen
T3 sequence (Q16620 30-430 limits assumed): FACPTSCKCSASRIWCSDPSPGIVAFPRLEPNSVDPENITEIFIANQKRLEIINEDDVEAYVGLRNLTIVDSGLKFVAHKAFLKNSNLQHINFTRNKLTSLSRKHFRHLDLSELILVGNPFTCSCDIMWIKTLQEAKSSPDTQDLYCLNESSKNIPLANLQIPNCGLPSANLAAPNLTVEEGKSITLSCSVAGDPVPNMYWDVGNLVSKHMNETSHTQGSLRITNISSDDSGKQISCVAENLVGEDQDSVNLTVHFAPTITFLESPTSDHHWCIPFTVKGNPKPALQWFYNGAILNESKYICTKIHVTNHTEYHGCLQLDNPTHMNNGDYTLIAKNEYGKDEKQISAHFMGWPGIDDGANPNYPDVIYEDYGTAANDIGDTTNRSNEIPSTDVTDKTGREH
Procedure: Wash CM5 chip in PBS with sonication. Replace the buffer of candidate antibodies and the target protein with the same PBS. The target protein was diluted to 1 μg/μL as the solid phase and the candidate antibodies were serial diluted to 7 dilutions as the fluid phase. After obtaining the signal, Biacore Evaluation Software was used to create fitting curves. ch2<Rmax/10 indicates good confidence level.
Biacore was used to analyze the affinity of antigen-antibody interaction.

[6] = target: T2, human TrkB on CHO cells (hTrkB-CHO …); assay: cell-based or functional assay; remark: listed apart in the source
TrkA = target: T4, TrkA (Homo sapiens (Human), UniProt P04629 33-423); assay: ELISA on coated TrkA, antibody at 10 nM, 1 nM and 0.1 nM
T4 construct: also called Tyrosine Receptor A
T4 sequence (P04629 33-423 limits assumed): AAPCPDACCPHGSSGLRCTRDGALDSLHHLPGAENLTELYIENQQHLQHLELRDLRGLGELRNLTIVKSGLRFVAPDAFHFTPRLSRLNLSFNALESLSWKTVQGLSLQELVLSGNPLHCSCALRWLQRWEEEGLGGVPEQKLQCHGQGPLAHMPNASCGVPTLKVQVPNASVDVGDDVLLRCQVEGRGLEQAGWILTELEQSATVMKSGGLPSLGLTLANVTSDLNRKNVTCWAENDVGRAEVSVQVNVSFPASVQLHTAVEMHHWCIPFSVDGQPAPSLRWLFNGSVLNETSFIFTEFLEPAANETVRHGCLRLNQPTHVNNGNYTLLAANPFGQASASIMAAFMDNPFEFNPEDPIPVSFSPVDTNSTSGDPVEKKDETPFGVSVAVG
Procedure: (§1) TrkB agonist antibodies can bind to TrkB specifically but not bind to TrkA, […], TrkC or P75 in ELISA assay. Data of exemplary antibodies TrkB-agoAb104, TrkB-agoAb202, TrkB-agoAb203, TrkB-agoAb303, TrkB-agoAb1104 and TrkB-agoAb2908 are shown in FIG. 1A-1F. 50 μL of […] protein was coated on each well of the plate, and 50 μL of 10 nM, 1 nM or 0.1 nM antibody was added to perform ELISA assay.

P75 = target: T5, P75 (Homo sapiens (Human), UniProt P08138 29-250); assay: ELISA on coated P75, antibody at 10 nM, 1 nM and 0.1 nM
T5 construct: also called P75 neurotrophin receptor; P75NTR
T5 sequence: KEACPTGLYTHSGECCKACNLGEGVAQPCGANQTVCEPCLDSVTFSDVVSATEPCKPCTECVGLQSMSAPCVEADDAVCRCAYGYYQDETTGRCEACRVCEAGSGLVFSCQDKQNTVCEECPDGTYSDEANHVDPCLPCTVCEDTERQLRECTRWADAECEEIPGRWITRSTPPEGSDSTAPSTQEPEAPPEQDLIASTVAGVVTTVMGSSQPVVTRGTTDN
Procedure: as §1

Sequence of human TrkB on CHO cells (hTrkB-CHO cells) (human) (Q16620 32-822): as the sequence (Q16620 32-822) above

B1: TrkB-agoAb6916 (antibody, V domains shown)
VH: QVQLQQSGTELMKPGASVKISCKAAGYTISSYWVEWVKQRPGHGLEWIGEILPGGGSTNYNEKFKGKATFTADISSNTAYMQLSNLTSEDSAVYYCASSDYWFAYWGQGTLVTVSA
VL: QIVLTQSPAIMSASPGEKVTMTCSASSSINYTHWFQQKPGTSPKRWIYDTSKLASGVPVRFSGSGSGTSYSLTISSMEAEDAATYYCHQRSSYPWTFGGGTKLEIK
notes: Mouse monoclonal antibody
binding result [2]: binds

B4: TrkB-agoAbB901 (antibody, IgG2, V domains shown)
VH: EVKLVESGGGLVQPGGSLKLSCAASGFDFSRYWMSWVRQAPGKGLEWIGEINPDGSTINYTPSLKDKFIISRDNAKNTLYLQMSKVRSEDTALYYCARGNYYGSSLAWFAYWGQGTLVTVSA
VL: DIQMTQSPASQSASLGESVTITCLASQTIGTLLAWYQQKPGKSPQLLIYAATTLADGVPSRFRGSGSGTKFSFKISSLQAEDFVSYYCQQFYSTPYTFGGGTKLEIK
notes: also called TrkB-agoAb901
binding result [2]: binds

B5: TrkB-agoAb5702 (antibody, IgG1, V domains shown)
VH: DVQLVESGGGLVQPGGSRKLSCAASGFTFSSFGMHWVRQAPEKGLEWVAYITSGSNTIYYADTVKGRFTISRDNPKNTLFLQMTSLRSEDTALYYCARDGYFLDALDYWGQGTSVTVSS
VL: DVQITQSPSYLAASPGETITINCRASKSISKYLAWYQEKPGKTNKLLIYSGSTLQSGIPSRFSGSGSGTDFTLTISSLEPEDFAMYYCQQHNEFPLTFGAGTKLELK
binding result [2]: binds

B7: TrkB-agoAb2908 (antibody, IgG1, V domains shown)
VH: QVQLQQSGPELVKPGASVKISCKASGYTFSSSWMNWVKQRPGQGLEWIGRIYPGDGHTNYNGKFKGKATLTADKSSSTAYMQLTSLTSVDSGVYFCARSGYGYGFDCWGQGTTLTVSS
VL: NIVLTQSPASLAVSLGQRATISCRASESVDNYGNSLMHWYQQKPGQPPKLLIYLASNLESGVPARFSGSGSRTDFTLTIDPVEADDAATYYCQQNNEDPPWTFGGGTKLEIKR
binding result (TrkA): no binding (tested: 10 nM)
binding result (P75): no binding (tested: 10 nM)

Next, values leading:

EC50 of TrkB Try515 phosphorylation, Alphalisa, hTrkB-CHO cells treated 30 min [1]: 1.39 nM
Molecule: brain-derived neurotrophic factor (BDNF) (from UniProt P23560 129-247) (ligand)

in vitro half life (T1/2) from the time course of TrkB phosphorylation, Alphalisa, cells treated at EC50 [3]: > 24 h
EC50 of TrkB Try515 phosphorylation, Alphalisa, hTrkB-CHO cells treated 30 min [4]: 2.84 nM
Kd [5]: 0.0529 nM
B2: TrkB-agoAb203 (antibody, V domains shown)
VH: DVKLVESGGGLVKPGGSLKLSCAASGFTFSSYTMSWVRQTPEKRLEWVATISSGGDYTYFPDSVKGRFTMSRDNAKNALYLQMSSLKSEDTAMYYCTRESGRGDFDYWGQGTTLTVSS
VL: DVLMTQTPLSLPVSLGDQASISCRSSQNIVHSNGNTYLEWYLQKPGQSPNLLIYNVSNRFSGVPDRFSGSGSGTDFTLKISRVEAEDLGVYYCFQGSHFPWTFGGGTKLEIT

EC50 (read off the curve) [6]: ~1 nM
binding result (TrkA): no binding (tested: 10 nM)
in vitro half life (T1/2) from the time course of TrkB phosphorylation, Alphalisa, cells treated at EC50 [3]: > 24 h
binding result (P75): no binding (tested: 10 nM)
EC50 of TrkB Try515 phosphorylation, Alphalisa, hTrkB-CHO cells treated 30 min [4]: 1.33 nM
Kd [5]: 4.02 nM
B3: TrkB-agoAb303 (antibody, V domains shown)
VH: B2 VH
VL: B2 VL
notes: Mouse monoclonal antibody

binding result (TrkA): no binding (tested: 10 nM)
binding result (P75): no binding (tested: 10 nM)
binding result [2]: binds
B6: TrkB-agoAb1104 (antibody, IgG1, V domains shown)
VH: QVQLQQSGAELARPGASVKLSCKASGYTFTRYWMQWVKQRPGQGLEWIGAIYPGDGDTRYTQKFKGKATLTADKSSSTAYMQLSSLASEDSAVYYCAGSGLGRAWFTYWGQGTLVTVSA
VL: DIQMTQSPASLSASVGETVTITCRSSENIYSYLAWYQQKQGKSPQLLVYNAKTLAEGVPSRFSGSGSGTQFSLKINSLQPEDFGSYYCQHHYGPPYTFGGGTKLEIK
